According to IntAct's records for PubMed 22193721:

B1: Beta-adrenergic receptor kinase 1 (Bos taurus (Bovine)), P21146 (parent)
chain: MADLEAVLADVSYLMAMEKSKATPAARASKKILLPEPSIRSVMQKYLEDRGEVTFEKIFSQKLGYLLFRDFCLKHLEEAKPLVEFYEEIKKYEKLETEEERLVCSREIFDTYIMKELLACSHPFSKSAIEHVQGHLVKKQVPPDLFQPYIEEICQNLRGDVFQKFIESDKFTRFCQWKNVELNIHLTMNDFSVHRIIGRGGFGEVYGCRKADTGKMYAMKCLDKKRIKMKQGETLALNERIMLSLVSTGDCPFIVCMSYAFHTPDKLSFILDLMNGGDLHYHLSQHGVFSEADMRFYAAEIILGLEHMHNRFVVYRDLKPANILLDEHGHVRISDLGLACDFSKKKPHASVGTHGYMAPEVLQKGVAYDSSADWFSLGCMLFKLLRGHSPFRQHKTKDKHEIDRMTLTMAVELPDSFSPELRSLLEGLLQRDVNRRLGCLGRGAQEVKESPFFRSLDWQMVFLQKYPPPLIPPRGEVNAADAFDIGSFDEEDTKGIKLLDSDQELYRNFPLTISERWQQEVAETVFDTINAETDRLEARKKTKNKQLGHEEDYALGKDCIMHGYMSKMGNPFLTQWQRRYFYLFPNRLEWRGEGEAPQSLLTMEEIQSVEETQIKERKCLLLKIRGGKQFVLQCDSDPELVQWKKELRDAYREAQQLVQRVPKMKNKPRSPVVELSKVPLIQRGSANGL
partner: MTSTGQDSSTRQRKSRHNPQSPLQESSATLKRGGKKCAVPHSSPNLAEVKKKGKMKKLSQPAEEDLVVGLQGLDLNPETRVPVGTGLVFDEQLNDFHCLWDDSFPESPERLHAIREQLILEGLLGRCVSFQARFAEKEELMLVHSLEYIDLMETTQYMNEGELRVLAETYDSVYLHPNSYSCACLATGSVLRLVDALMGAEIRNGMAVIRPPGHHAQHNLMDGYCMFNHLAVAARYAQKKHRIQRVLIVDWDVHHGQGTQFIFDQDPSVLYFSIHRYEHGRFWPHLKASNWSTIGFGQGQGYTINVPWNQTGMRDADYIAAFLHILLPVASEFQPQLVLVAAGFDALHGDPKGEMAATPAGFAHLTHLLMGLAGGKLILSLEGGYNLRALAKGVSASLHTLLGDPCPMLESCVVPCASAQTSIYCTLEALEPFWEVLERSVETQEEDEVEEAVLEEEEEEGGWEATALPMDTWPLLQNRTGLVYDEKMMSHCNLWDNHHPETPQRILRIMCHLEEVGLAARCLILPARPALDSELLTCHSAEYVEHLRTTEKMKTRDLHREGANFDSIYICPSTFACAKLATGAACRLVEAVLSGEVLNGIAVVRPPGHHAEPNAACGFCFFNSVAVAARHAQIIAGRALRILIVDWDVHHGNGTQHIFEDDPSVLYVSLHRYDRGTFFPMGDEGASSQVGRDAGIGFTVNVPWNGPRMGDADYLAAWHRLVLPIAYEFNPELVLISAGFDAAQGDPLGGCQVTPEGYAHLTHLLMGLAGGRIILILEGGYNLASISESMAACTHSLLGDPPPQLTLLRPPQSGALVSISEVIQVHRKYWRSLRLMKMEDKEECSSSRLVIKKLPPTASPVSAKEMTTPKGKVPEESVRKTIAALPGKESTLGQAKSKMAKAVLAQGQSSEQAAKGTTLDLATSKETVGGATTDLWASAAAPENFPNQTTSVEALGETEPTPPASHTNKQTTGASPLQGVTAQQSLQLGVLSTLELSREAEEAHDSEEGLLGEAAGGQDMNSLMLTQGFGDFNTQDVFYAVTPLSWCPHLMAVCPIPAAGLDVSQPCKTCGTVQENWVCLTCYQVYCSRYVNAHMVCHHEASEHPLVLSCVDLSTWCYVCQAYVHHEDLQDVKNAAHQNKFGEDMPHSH
B2: Beta-adrenergic receptor kinase 1 (Bos taurus (Bovine)), P21146 (parent)
chain: B1 chain

Variants of: B1
Settings: with hdac6_mouse Hdac6, Q9Z2V5

Row | Variant | effect of a mutation on the interaction
1 | K220R | increasing interaction

Variants of: B2
Settings: with hdac6_human HDAC6, Q9UBN7
Sequence of hdac6_human HDAC6, Q9UBN7 (Q9UBN7 whole entry): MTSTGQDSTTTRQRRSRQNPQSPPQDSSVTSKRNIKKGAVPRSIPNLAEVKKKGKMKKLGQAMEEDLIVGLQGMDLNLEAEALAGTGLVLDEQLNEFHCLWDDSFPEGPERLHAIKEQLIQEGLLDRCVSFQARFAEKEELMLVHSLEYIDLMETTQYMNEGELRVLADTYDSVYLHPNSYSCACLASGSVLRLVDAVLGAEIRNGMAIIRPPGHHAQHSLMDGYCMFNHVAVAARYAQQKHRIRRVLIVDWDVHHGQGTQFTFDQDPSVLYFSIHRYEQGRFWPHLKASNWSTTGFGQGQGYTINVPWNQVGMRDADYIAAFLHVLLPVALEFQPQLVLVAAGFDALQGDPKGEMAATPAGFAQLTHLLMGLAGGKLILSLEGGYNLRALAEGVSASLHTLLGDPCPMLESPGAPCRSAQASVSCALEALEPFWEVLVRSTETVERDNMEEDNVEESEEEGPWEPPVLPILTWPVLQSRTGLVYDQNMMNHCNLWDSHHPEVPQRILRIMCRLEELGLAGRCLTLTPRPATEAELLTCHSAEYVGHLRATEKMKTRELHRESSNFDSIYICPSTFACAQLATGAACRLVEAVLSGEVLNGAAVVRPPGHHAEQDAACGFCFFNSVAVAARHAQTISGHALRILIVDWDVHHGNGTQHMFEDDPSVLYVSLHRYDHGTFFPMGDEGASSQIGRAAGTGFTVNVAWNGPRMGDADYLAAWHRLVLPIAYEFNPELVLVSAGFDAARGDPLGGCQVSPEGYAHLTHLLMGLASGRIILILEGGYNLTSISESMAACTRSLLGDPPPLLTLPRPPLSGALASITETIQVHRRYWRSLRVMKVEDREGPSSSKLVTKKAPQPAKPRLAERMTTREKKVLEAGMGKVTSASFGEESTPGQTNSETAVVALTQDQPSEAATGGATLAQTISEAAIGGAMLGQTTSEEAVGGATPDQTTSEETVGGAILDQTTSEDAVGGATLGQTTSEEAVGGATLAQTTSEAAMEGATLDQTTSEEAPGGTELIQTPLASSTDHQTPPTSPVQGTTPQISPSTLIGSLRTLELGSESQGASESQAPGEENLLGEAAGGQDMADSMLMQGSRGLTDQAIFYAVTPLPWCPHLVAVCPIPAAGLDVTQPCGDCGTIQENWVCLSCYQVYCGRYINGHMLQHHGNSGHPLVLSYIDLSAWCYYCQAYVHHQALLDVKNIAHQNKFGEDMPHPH

Row | Variant | effect of a mutation on the interaction
2 | K220R | disrupting interaction

Variants of: B2
Settings: with hdac6_human HDAC6, Q9UBN7
Remark: another data set of the same source

Row | Variant | effect of a mutation on the interaction
3 | S670A | decreasing interaction
